# Laboratory results published in publication PMC10781630, “Structural basis of Gabija anti-phage defence and viral immune evasion” (Nature, 2023).
# T1: GajA E379A;GajB (Bacillus cereus VD045;Bacillus cereus …, UniProt J8H9C1;J8HQ06 1-578;1-494, E379A|)
# T1 sequence 1: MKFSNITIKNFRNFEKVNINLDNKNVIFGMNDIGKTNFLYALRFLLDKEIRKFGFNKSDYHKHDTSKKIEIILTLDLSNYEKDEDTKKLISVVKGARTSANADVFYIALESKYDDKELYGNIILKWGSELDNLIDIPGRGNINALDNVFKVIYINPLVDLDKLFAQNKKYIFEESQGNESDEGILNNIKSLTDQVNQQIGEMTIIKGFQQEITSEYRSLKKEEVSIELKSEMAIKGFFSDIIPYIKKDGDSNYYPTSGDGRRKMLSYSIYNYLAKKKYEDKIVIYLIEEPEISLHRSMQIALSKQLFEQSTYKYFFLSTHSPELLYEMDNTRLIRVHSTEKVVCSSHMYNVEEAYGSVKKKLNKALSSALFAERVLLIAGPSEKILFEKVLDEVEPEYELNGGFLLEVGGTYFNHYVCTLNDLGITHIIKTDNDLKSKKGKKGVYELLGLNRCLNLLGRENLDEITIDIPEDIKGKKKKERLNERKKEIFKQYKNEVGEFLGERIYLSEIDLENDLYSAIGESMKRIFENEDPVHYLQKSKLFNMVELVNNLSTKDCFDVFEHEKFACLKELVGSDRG
# T1 sequence 2: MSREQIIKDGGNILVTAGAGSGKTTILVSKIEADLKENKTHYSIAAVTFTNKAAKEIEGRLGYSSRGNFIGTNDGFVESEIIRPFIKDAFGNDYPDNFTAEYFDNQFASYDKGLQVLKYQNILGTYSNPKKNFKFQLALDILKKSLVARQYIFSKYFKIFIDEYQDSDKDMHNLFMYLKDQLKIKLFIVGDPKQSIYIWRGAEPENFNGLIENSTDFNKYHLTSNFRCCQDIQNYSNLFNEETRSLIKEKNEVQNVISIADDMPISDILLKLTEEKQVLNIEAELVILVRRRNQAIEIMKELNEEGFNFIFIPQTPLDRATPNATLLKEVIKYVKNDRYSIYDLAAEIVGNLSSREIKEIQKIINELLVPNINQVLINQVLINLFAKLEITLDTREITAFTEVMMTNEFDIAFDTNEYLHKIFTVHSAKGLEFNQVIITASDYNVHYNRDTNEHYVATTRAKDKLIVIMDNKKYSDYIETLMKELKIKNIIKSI
# B1: Bacillus cereus VD045 GajA (Gabija protein A), expressed alone (enzyme)
# chain: KFSNITIKNFRNFEKVNINLDNKNVIFGMNDIGKTNFLYALRFLLDKEIRKFGFNKSDYHKHDTSKKIEIILTLDLSNYEKDEDTKKLISVVKGARTSANADVFYIALESKYDDKELYGNIILKWGSELDNLIDIPGRGNINALDNVFKVIYINPLVDLDKLFAQNKKYIFEESQGNESDEGILNNIKSLTDQVNQQIGEMTIIKGFQQEITSEYRSLKKEEVSIELKSEMAIKGFFSDIIPYIKKDGDSNYYPTSGDGRRKMLSYSIYNYLAKKKYEDKIVIYLIEEPEISLHRSMQIALSKQLFEQSTYKYFFLSTHSPELLYEMDNTRLIRVHSTEKVVCSSHMYNVEEAYGSVKKKLNKALSSALFAERVLLIEGPSEKILFEKVLDEVEPEYELNGGFLLEVGGTYFNHYVCTLNDLGITHIIKTDNDLKSKKGKKGVYELLGLNRCLNLLGRENLDEITIDIPEDIKGKKKKERLNERKKEIFKQYKNEVGEFLGERIYLSEIDLENDLYSAIGESMKRIFENEDPVHYLQKSKLFNMVELVNNLSTKDCFDVFEHEKFACLKELVGSDRG
# notes: GajA, Bacillus cereus VD045, IMG ID 2519684552; gene codon-optimized and synthesized; the C-terminal 6×His construct is the only GajA-alone construct described; also called BcGajA; GajA alone; source: E. coli BL21(DE3) strains, purified (Ni-NTA, SEC); also co-expressed with Shewanella phage 1/4 Gad1, in lysate for Ni-NTA co-purification; not shown: 6×His, C-terminal, kept
# B2: Bacillus cereus VD045 GajA, co-expressed with GajB, tag removed (subunit of the GajAB complex) (enzyme)
# chain: KFSNITIKNFRNFEKVNINLDNKNVIFGMNDIGKTNFLYALRFLLDKEIRKFGFNKSDYHKHDTSKKIEIILTLDLSNYEKDEDTKKLISVVKGARTSANADVFYIALESKYDDKELYGNIILKWGSELDNLIDIPGRGNINALDNVFKVIYINPLVDLDKLFAQNKKYIFEESQGNESDEGILNNIKSLTDQVNQQIGEMTIIKGFQQEITSEYRSLKKEEVSIELKSEMAIKGFFSDIIPYIKKDGDSNYYPTSGDGRRKMLSYSIYNYLAKKKYEDKIVIYLIEEPEISLHRSMQIALSKQLFEQSTYKYFFLSTHSPELLYEMDNTRLIRVHSTEKVVCSSHMYNVEEAYGSVKKKLNKALSSALFAERVLLIEGPSEKILFEKVLDEVEPEYELNGGFLLEVGGTYFNHYVCTLNDLGITHIIKTDNDLKSKKGKKGVYELLGLNRCLNLLGRENLDEITIDIPEDIKGKKKKERLNERKKEIFKQYKNEVGEFLGERIYLSEIDLENDLYSAIGESMKRIFENEDPVHYLQKSKLFNMVELVNNLSTKDCFDVFEHEKFACLKELVGSDRG
# notes: GajA, Bacillus cereus VD045, IMG ID 2519684552; the 5×GS linker may stay on GajA after SENP2 cleavage; also called BcGajA; source: E. coli BL21(DE3) strains, co-expressed with GajB, purified (Ni-NTA, SUMO2 cleavage by hSENP2, SEC); not shown: 6×His-SUMO2-5×GS, N-terminal, cleaved
# B3: 56-bp scrambled dsDNA (dsDNA)
# DNA 1: TTTTTTTTTTTTTTTTTGACATTACATTCAGTTTTTTTTTTTTTTTTTTTTTTTTT
# DNA 2: AAAAAAAAAAAAAAAAAAAAAAAAACTGAATGTAATGTCAAAAAAAAAAAAAAAAA
# Columns and labels:
# [1] = molecular target: the molecule itself; experiment: SEC; 16/600 S200 (Superdex 200); recombinant BcGajA and BcGajB each run alone
# [2] = molecular target: the molecule itself; experiment: crystal structure; co-expressed and co-purified GajAB, 3.0 Å; hanging drop, 18 °C, 100 mM HEPES-NaOH pH 7.5, 2.4% PEG-400, 2.2 M ammonium sulfate
# GajA E379A;GajB = molecular target: T1, GajA E379A;GajB; experiment: EMSA; 5 mM Ca2+; details: protein: recombinant;recombinant; tags: N-terminal 6xHis-SUMO2-5xGS, cleaved by SENP2;none in co-expressed complex; chain copies: 4;4; label: none (ethidium bromide post-stain)
binder,measurement,setting,value
B1,stoichiometry N,[1],4
B2,stoichiometry N,[2],4
B3,binding result,GajA E379A;GajB,binds
